Drawing on PMC11931385, “Structural and functional analysis of cancer-associated missense variants in the retinoblastoma protein pocket domain” (The Journal of Biological Chemistry, 2025), this text covers Kd for 2 molecules.

No end group written: not given here. TMR = tetramethyl rhodamine dye

Common to all, as to experiment: fluorescence polarisation; 37 °C, after the 25 °C reading ramped over 7 min to 37 °C and 2 min incubation; unlabeled Rb^P against 1.5 nM TMR-E2F1^TD or 7.5 nM TMR-E7^LxCxE; 25 mM Tris pH 8.0, 200 mM NaCl, 1 mM DTT, 0.1% Tween-20; apparent Kd
Conditions in all cases: both partners purified

In one assay the target is T1, Rb^P D584Y (human, UniProt P06400 380-788, D584Y).
T1 construct: also called variant 32
T1 sequence (looked up): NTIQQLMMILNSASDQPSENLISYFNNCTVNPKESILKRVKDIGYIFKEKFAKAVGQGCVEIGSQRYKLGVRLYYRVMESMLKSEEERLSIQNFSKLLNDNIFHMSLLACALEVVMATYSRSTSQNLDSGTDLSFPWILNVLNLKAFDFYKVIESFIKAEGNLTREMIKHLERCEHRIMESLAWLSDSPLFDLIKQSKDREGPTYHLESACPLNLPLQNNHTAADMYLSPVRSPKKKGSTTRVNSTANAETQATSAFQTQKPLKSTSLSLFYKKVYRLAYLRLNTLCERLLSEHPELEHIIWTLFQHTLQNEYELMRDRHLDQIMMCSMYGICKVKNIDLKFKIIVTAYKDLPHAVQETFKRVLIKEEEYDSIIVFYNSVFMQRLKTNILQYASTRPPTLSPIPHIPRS

In the next assay the target is T2, Rb^P R556Q (human, UniProt P06400 380-788, R556Q).
T2 construct: also called variant 30
T2 sequence (looked up): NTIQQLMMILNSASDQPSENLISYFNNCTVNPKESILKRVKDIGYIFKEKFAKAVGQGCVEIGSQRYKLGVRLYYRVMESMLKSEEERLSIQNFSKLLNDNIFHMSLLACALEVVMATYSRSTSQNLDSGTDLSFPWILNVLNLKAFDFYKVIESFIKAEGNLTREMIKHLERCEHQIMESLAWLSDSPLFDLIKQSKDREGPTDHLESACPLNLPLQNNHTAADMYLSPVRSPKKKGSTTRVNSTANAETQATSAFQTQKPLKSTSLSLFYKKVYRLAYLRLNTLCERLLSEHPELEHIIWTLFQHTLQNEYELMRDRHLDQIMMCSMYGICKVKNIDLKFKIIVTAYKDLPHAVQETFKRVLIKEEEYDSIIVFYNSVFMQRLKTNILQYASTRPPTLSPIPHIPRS

Another assay has as its target T3, Rb^P S474N (human, UniProt P06400 380-788, S474N).
T3 construct: also called variant 12
T3 sequence (looked up): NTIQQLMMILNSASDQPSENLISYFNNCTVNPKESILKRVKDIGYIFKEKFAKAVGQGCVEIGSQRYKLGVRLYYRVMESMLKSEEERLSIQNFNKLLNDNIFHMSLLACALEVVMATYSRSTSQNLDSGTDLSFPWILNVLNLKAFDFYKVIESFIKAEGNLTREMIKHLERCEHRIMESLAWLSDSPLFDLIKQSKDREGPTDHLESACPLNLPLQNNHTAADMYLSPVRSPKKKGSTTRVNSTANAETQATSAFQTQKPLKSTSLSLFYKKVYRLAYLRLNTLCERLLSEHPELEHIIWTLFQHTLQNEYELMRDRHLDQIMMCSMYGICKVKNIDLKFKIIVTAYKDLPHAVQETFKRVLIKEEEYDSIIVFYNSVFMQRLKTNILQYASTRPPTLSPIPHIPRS

A further assay deals with T4, Rb^P R668C (human, UniProt P06400 380-788, R668C).
T4 construct: also called variant 51
T4 sequence (looked up): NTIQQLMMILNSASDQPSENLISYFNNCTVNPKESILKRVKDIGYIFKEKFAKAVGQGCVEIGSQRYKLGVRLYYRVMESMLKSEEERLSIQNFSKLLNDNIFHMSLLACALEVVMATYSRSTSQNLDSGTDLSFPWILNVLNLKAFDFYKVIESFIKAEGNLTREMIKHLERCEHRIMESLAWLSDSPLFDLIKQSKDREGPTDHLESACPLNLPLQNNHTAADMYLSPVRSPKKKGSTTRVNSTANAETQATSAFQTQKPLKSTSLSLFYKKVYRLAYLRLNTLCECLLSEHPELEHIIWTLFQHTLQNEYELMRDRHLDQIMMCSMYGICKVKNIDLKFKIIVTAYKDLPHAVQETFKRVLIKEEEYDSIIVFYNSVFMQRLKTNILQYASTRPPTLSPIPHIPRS

The next assay deals with T5, Rb^P R656Q (human, UniProt P06400 380-788, R656Q).
T5 construct: also called variant 48
T5 sequence (looked up): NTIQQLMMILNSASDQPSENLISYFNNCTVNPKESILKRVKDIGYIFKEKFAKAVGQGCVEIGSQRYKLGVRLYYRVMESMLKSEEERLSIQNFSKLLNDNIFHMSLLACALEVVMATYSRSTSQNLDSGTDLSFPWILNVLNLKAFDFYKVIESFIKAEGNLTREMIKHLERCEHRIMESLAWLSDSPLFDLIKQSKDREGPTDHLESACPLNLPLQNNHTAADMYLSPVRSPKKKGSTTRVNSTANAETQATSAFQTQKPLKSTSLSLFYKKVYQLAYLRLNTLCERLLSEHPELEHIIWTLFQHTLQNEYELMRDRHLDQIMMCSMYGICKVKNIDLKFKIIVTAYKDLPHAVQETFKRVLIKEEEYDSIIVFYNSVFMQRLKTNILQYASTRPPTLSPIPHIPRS

B1: TMR-E2F1^TD, peptide of the E2F1 transactivation domain (peptide)
peptide: {TMR}-GEGIRDLFDCDFGDLTPLD
notes: also called E2F^TD; source: synthetic peptide, bought: GenScript
In the case of B1, the Kd in the assay with Rb^P D584Y was determined as 51 nM; with Rb^P R556Q it was 48 nM; with Rb^P S474N, 26 nM; with Rb^P R668C it was 25 nM; in the assay with Rb^P R656Q, 325 nM.

B2: TMR-E7^LxCxE, LxCxE peptide of the E7 oncoprotein from HPV (peptide)
peptide: DLYCYEQLN
modifications: also: TMR label, position not given here
notes: source: synthetic peptide, bought: GenScript
As for B2, the Kd is 20 nM with Rb^P D584Y; 13 nM with Rb^P R556Q; 13 nM with Rb^P S474N; 16 nM with Rb^P R668C; 14 nM in the assay with Rb^P R656Q.
